Data taken from the supplement of paper PMC9170038.

What follows are sequences tested on MS2 coat protein (assay: apparent KD of MS2 coat protein; designed switch direction (-1 OFF switch, 1 ON switch): 1; higher = weaker reporter binding). Conditions: Eterna round: R98; input ligand: FMN 200 uM.
Description: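 RNA-MaP: designed FMN/MS2 RNA switches (84 nt design region) are transcribed on-chip within common flanks and titrated with SNAP-549-labelled MS2 coat protein (about 1-3000 nM) in 100 mM Tris pH 7.5, 80 mM KCl, 4 mM MgCl2, without or with 200 uM FMN. Median apparent KD per design; activation ratio = KD,OFF / KD,ON.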

Point of comparison: “GUGCACAUUCGAGGAUAUCGGAGAGGAGUCCUUCGAGAAGGCGAUUCAUGCUGUGUUAUUCUGGACAUGAGGAUCACCCAUGUG [LRO019_SS NG 1 mod JR_SSNG1_Sub034]”, “apparent KD of MS2 coat protein” value 107 nM. Against it:
- GGACAUCCCACAGGAUAUGCUGGACUUUGUCCAGCAGAAGGGUGAAACAUGAGGAUCACCCAUGUAAGGAUGUCCAUAUUUAAU [Denovo 40] — 2-fold higher, 217 nM
- GCACUCAAGUUAGGAUAUGGAUCGGAAAACGAUCCAGAAGGAACAUGAAAACAUGAGCAUCAGCCAUGUUCCAGAAACGAGUGC [SameSame 13 - Jieux - Same State NG 1] — 4.7-fold lower, 22.8 nM
- GCUGUCGCAUGAGGAUAUGGUCACGUUUCGUGACCAGAAGGCAUGUCAAUAGACAUGAGGAUCACCCAUGUAGUAAAGACAGCA [Mat - Same State NG 1 - JL Mod - D40] — 3-fold lower, 35.1 nM
- GCAGAAGGUGCGGAGGAUCACCCUGUAAGGAUAUGCAUUAGCAAGGAUAUACAGAGGAUCACCCUGUAGAAGGUGCACUUCUAA [pwkr2 ssNG3 DX.7] — 12-fold higher, 1290 nM
- UAACUAAUAUACACAUGAGGAUCACCCAUGUCCACCCGUGGACAGGAUAUCUGGCCGCGCCGGCUGGAGAAGGGUCCGUAUUGU [Arianesge] — 1.6-fold higher, 172 nM
- GUAGCAUACUGAGGAUAUUCAUAUAAUAAAUAAACAUGAGGAUCACCCAUGUGGCGAAAGCCUUGGGAGAAGGCAGAAUGCUAC [Xeonanis 55 7] — 2.8-fold lower, 38.3 nM
- UUUGGGAGCACAGGAUAUGGCACCUCGACCGUGCCAGAAGGGUGAUUCUGUUGGUGGCCACAUGAGGAUCACCCAUGUGCCUCC [Araterin] — 5-fold lower, 21.5 nM
- CCACAACAUUGAGGAUAUGCACAGGAUCACCGUGUAGAAGGCAUCAGGGAGAAGGUGCAGAGGAUCACCCUGUAAGGAUAUCUA [pwkr2 ssNG1 DX.8] — within 1.5-fold, 133 nM
- GCUCUCACUUGAGGAUAUCGAGUGGAAUACACUCGAGAAGGCAGGAAAACCUGAGGAUCACCCAGGUAACUGGAAAGAGAGCAA [Same State NG1 - A3C, U17G Submission 5G-G46A] — 5.3-fold lower, 20.3 nM

Same assay, conditions: Eterna round: R98; input ligand: none

Point of comparison: “UUUGGGAGCACAGGAUAUGGCACCUCGACCGUGCCAGAAGGGUGAUUCUGUUGGUGGCCACAUGAGGAUCACCCAUGUGCCUCC [Araterin]”, “apparent KD of MS2 coat protein” value 275 nM. Against it:
- GGACAUCCCACAGGAUAUGCUGGACUUUGUCCAGCAGAAGGGUGAAACAUGAGGAUCACCCAUGUAAGGAUGUCCAUAUUUAAU [Denovo 40] — 8-fold higher, 2190 nM
- GCACUCAAGUUAGGAUAUGGAUCGGAAAACGAUCCAGAAGGAACAUGAAAACAUGAGCAUCAGCCAUGUUCCAGAAACGAGUGC [SameSame 13 - Jieux - Same State NG 1] — 3.9-fold lower, 69.9 nM
- GCUGUCGCAUGAGGAUAUGGUCACGUUUCGUGACCAGAAGGCAUGUCAAUAGACAUGAGGAUCACCCAUGUAGUAAAGACAGCA [Mat - Same State NG 1 - JL Mod - D40] — within 1.5-fold, 386 nM
- GCAGAAGGUGCGGAGGAUCACCCUGUAAGGAUAUGCAUUAGCAAGGAUAUACAGAGGAUCACCCUGUAGAAGGUGCACUUCUAA [pwkr2 ssNG3 DX.7] — 4.3-fold higher, 1170 nM
- GUGCACAUUCGAGGAUAUCGGAGAGGAGUCCUUCGAGAAGGCGAUUCAUGCUGUGUUAUUCUGGACAUGAGGAUCACCCAUGUG [LRO019_SS NG 1 mod JR_SSNG1_Sub034] — 1.8-fold lower, 149 nM
- UAACUAAUAUACACAUGAGGAUCACCCAUGUCCACCCGUGGACAGGAUAUCUGGCCGCGCCGGCUGGAGAAGGGUCCGUAUUGU [Arianesge] — 4.9-fold lower, 56.2 nM
- GUAGCAUACUGAGGAUAUUCAUAUAAUAAAUAAACAUGAGGAUCACCCAUGUGGCGAAAGCCUUGGGAGAAGGCAGAAUGCUAC [Xeonanis 55 7] — 1.9-fold higher, 511 nM
- CCACAACAUUGAGGAUAUGCACAGGAUCACCGUGUAGAAGGCAUCAGGGAGAAGGUGCAGAGGAUCACCCUGUAAGGAUAUCUA [pwkr2 ssNG1 DX.8] — within 1.5-fold, 340 nM
- GCUCUCACUUGAGGAUAUCGAGUGGAAUACACUCGAGAAGGCAGGAAAACCUGAGGAUCACCCAGGUAACUGGAAAGAGAGCAA [Same State NG1 - A3C, U17G Submission 5G-G46A] — 17-fold lower, 16.1 nM

Each sequence was assayed on MS2 coat protein (assay: apparent KD of MS2 coat protein, switch ON state; designed switch direction (-1 OFF switch, 1 ON switch): 1; higher = weaker reporter binding). Conditions: FMN input: 0 or 200 uM; Eterna round: R93 (includes R88 designs).
Method in brief: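 Designed RNA switches were transcribed on-chip from Illumina sequencing clusters and titrated with SNAP-549-labelled MS2 coat protein in twofold steps from 0.7 or 1.5 nM up to 3 µM. Each step lasted 0.8–1.5 h at first and 10–20 min by the end, in 100 mM Tris-HCl pH 7.5, 80 mM KCl and 4 mM MgCl2, without or with constant ligand. Apparent KD is the median, for each design, of fits to normalised cluster binding curves.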

Point of comparison: “GAUAGACAUGAGGAUCACCCAUGUAGAAUUAUGGGAGGAUAUACAAAGACGAGAGUCAGAGUAGAAGGCCUAGGAU [salish99-ss1-157]”, “apparent KD of MS2 coat protein” value 23.6 nM. Against it:
- AAGAACGUGGUGUAGGAUAUACUAAUAGUCACAUGAGGAUCACCCAUGUUCAUAUAUAUGAACGAGUAGAAGGACGACGAAAAAA [Mat - Same state - Malcolm Mod - D107] — 5.8-fold higher, 137 nM
- GAGGACAUAGUACAGGAUAUAUGAAUAGUUACAUGAGGAUCACCCAUGUGCAUUUAUAUGCGAACAUAGAAGGGUGGUAGUUAUC [SameState2 Malc#30] — 5.8-fold higher, 136 nM
- AAAAAACAUGAGGAUCACCCAUGUAAAAAUAUGGGAGGAUAUGCGAAAAGAAACAAAGAAGCAGAAGGCCUAAAAA [75%, Ex5 sub 1, 8] — within 1.5-fold, 25.6 nM
- AACAAUCUAUCUGAGGAUAUGUGUCGAAAGACAUGAGGAUCACCCAUGUAAAAACAUGGAAAAUCACAGAAGGCAGAUAGAUUGA [SS2: 1145] — 5.4-fold higher, 127 nM
- AUUAAAUAUAGUUAGGAUAUAAUAUGUAAGACAUGAGGAUCACCCAUGUCCUAAGAAUAGUUAAAUUAGAAGGAACAGUGAAUAU [JR_SS002_Sub420] — within 1.5-fold, 24.1 nM
- GGGAGGAAGAGAGAGGAUAUCCAAAGGAAAACAUGAGGAUCACCCAUGUAAAAGGUAGGAAAUUGGGAGAAGGCUCAAAAGAAGG [salish99-ss2-045] — within 1.5-fold, 27.6 nM
- AUAAAACAUGAGGAUCACCCAUGUAAAAAUAUGGAAGGAUAUACGUAGUAAAAUAAAUACGUAGAAGGUCCAAAAA [SS! MT 21] — 1.6-fold lower, 15 nM
- AUAAAACAUGAGGAUCACCCAUGUAGAAAUAAGGGAGGAUAUACAAAGACGAAAGUCAAAGUAGAAGGCUCAAAAG [76%, Meechl 5] — within 1.5-fold, 16.8 nM
- AAAAAACAUGAGGAUCACCCAUGUAAAAAAAUGGGAGGAUAUCUGAAUUAAUUAAAUUAAGGAGAAGGCCUAAAAA [71%, Same state of confusion2, 4] — within 1.5-fold, 26 nM
- AAAAAACAUGAGGAUCACCCAUGUGAGAAUAUGGAAGGAUAUACAAAGACGAAAGUCAAAGUAGAAGGUCUAAAAG [Mat - Same State 1 - Eli mod - D90] — within 1.5-fold, 31.1 nM
- AAAAAAAAAACUGAGGAUAUCAGGGAUGGUACAUGAGGAUCACCCAUGUUGGCGGGCGAAGAAACUGAGAAGGCAGAAAAAAAAAA [JR_SameState2_Sub4] — 1.7-fold higher, 40.4 nM
- AAAACACAUGAGGAUCACCCAUGUAAAAACAUGAGAGGAUAUGCAUGGAAAAAAAACUAUGCAGAAGGCUCAUGUG [SS1 - 4] — within 1.5-fold, 21.2 nM
- AAGAAACAUGAGGAUCACCCAUGUAAGAUAAACACAGGAUAUGCGAAAAUAAAUAAAUAAGCAGAAGGGUGAAAAG [Mat - Same State 1 - Tesla mod - 75] — within 1.5-fold, 19.9 nM
- AAUAUACAUGAGGAUCACCCAUGUUAGGUGGGACUAGGAUAUCAAAAUAAAUAAAGAACAUGAGAAGGAGUAUAAA [JR_SS001_Sub017] — 3.2-fold higher, 75.3 nM
- ACUAGGAAGAGAGAGGAUAUCCAAAGGAAAACAUGAGGAUCACCCAUGUAAAAGGUAGGAAAUUGGGAGAAGGCUCAAGAGAGAG [salish99-ss2-085] — within 1.5-fold, 22.9 nM
- AAAGAAAAACUAGAGGAUAUUUGAAUGGUAACAUGAGGAUCACCCAUGUGAAGAAAGGAACAUGAGGAGAAGGCUAGAAGAAAAA [JL Nando mod 16] — within 1.5-fold, 17.5 nM
- GGGAGACAUGAGGAUCACCCAUGUGAGAAGAGGCGAGGAUAUCGAAAGAAAGAAGAGAAACGAGAAGGCGCGAGGA [salish99-SS1-051] — 1.6-fold higher, 37.7 nM
- AAAAGACAUGAGGAUCACCCAUGUAAAGACGUGGGAGGAUAUGUAUGGAAACCAGACUGUACAGAAGGCCUCUGUC [SS1 - 72] — 7-fold higher, 165 nM
- AAAACACAUGAGGAUCACCCAUGUAGAAAUACGGGAGGAUAUGCAAAAACGAAAGACAAAGUAGAAGGCCUAAAAG [saturn 9] — within 1.5-fold, 26.2 nM
- AACUAACAUGAGGAUCACCCAUGUAUUCAAACAUGAGGAUAUAUAACACAUCAUCAACAGAUAGAAGGCAUAAAUA [JR_SS001_Sub1204] — 3.9-fold higher, 93 nM
